Data as given in patent US20220281931.

Target: Strep II-Avi BCL6^5-360

B1: Flag-SIAH1^FL (protein)
chain: MSRQTATALPTGTSKCPPSQRVPALTGTTASNNDLASLFECPVCFDYVLPPILQCQSGHLVCSNCRPKLTCCPTCRGPLGSIRNLAMEKVANSVLFPCKYASSGCEITLPHTEKADHEELCEFRPYSCPCPGASCKWQGSLDAVMPHLMHQHKSITTLQGEDIVFLATDINLPGAVDWVMMQSCFGFHFMLVLEKQEKYDGHQQFFAIVQLIGTRKQAENFAYRLELNGHRRRLTWEATPRSIHEGIATAIMNSDCLVFDTSIAQLFAENGNLGINVTISMC
in vitro ubiquitination (western blot, Strep tag II antibody): BCL6 is a substrate for SIAH1 (FIG. 10D), and that the rate and magnitude of ubiquitination is accelerated by BI-3802 (FIG. 4B)
